Assay results taken from patent publication US20210318312.
Residue numbers refer to the chain shown, from its start. Numbers in names are those of the source.

Experiments:
H3 K9 Lipoyl peptide = molecular target: T1, H3 K9 Lipoyl peptide
T1 chain: KQTARKSTGGWW

DLAT K259 Lipoyl peptide = molecular target: T2, DLAT K259 Lipoyl peptide
T2 chain: EIETDKATIGWW

H3 K9 Acetyl peptide = molecular target: T3, H3 K9 Acetyl peptide
T3 chain: KQTARKSTGGWW

DLAT K259 Acetyl peptide = molecular target: T4, DLAT K259 Acetyl peptide
T4 chain: EIETDKATIGW

H3 K9 Biotinyl peptide = molecular target: T5, H3 K9 Biotinyl peptide
T5 chain: KQTARKSTGGWW

[1] = molecular target: T6, lipoyl-modified PDHX peptide
T6 chain: EIETDKAVVTWW

[2] = molecular target: purified porcine heart pyruvate dehydrogenase (Sigma-Aldrich, cat. #P7032)
[3] = molecular target: T7, lipoyl-modified DLAT peptide of the LC-MS deacylation assay
T7 chain: EIETDKATIGWW

B1: recombinant SIRT4 (N-terminally truncated human Sirt4, 33-314 of SEQ ID NO: 2) (protein)
chain: VPASPPLDPEKVKELQRFITLSKRLLVMTGAGISTESGIPDYRSEKVGLYARTDRRPIQHGDFVRSAPIRQRYWARNFVGWPQFSSHQPNPAHWALSTWEKLGKLYWLVTQNVDALHTKAGSRRLTELHGCMDRVLCLDCGEQTPRGVLQERFQVLNPTWSAEAHGLAPDGDVFLSEEQVRSFQVPTCVQCGGHLKPDVVFFGDTVNPDKVDFVHKRVKEADSLLVVGSSLQVYSGYRFILTAWEKKLPIAILNIGPTRSDDLACLKLNSRCGELLPLIDPC
MCD K471 Acetyl peptide
  Km: ND (>2500)
  kcat/Km: 0.0064 s^-1M^-1
H3 K9 Lipoyl peptide
  Km: 814 µM
  LC-MS-based deacylation assay, hydrolysis of the acyl-lysine modification: SIRT4 was able to hydrolyze all three modifications
  catalytic efficiency, fold (another experiment): lipoyl (28-fold)
  catalytic efficiency, fold against acetylated H3K9: lipoyl (SEQ ID NO: 3 (30-fold)
  kcat: 0.0019 s⁻¹
  kcat/Km: 2.3 s^-1M^-1
  relative amount of unmodified product generated using 5 µM SIRT4: 11% (lipoyl-SEQ ID NO: 3)
DLAT K259 Lipoyl peptide
  Km: 239 µM
  catalytic efficiency, fold against H3K9 lipoyl: 3.5-fold increased efficiency compared to H3K9 lipoyl
  catalytic efficiency, fold against H3K9 lipoyl (another experiment): 3.3-fold increase in efficiency compared to H3K9 lipoyl
  catalytic efficiency, fold against deacetylation of MCD: ˜1270-fold more efficient at hydrolyzing the DLAT lipoamide
  kcat: 0.0016 s⁻¹
  kcat/Km: 7.65 s^-1M^-1
H3 K9 Acetyl peptide
  Km: ND* (>2500)
  LC-MS-based deacylation assay, hydrolysis of the acyl-lysine modification: SIRT4 was able to hydrolyze all three modifications
  kcat/Km: 0.083 s^-1M^-1
  relative amount of unmodified product generated using 5 µM SIRT4: 0.3% (acetyl-SEQ ID NO: 3)
DLAT K259 Acetyl peptide
  Km: ND* (>2500)
  catalytic efficiency, fold lower than DLAT lipoyl: this efficiency was still 38-fold lower than DLAT lipoyl
  kcat: 0.0011 s⁻¹
  kcat/Km: 0.2 s^-1M^-1
H3 K9 Biotinyl peptide
  Km: 719 µM
  LC-MS-based deacylation assay, hydrolysis of the acyl-lysine modification: SIRT4 was able to hydrolyze all three modifications
  catalytic efficiency, fold (another experiment): biotinyl (9-fold)
  catalytic efficiency, fold against acetylated H3K9: biotinyl (SEQ ID NO: 4) (11-fold)
  kcat: 0.0005 s⁻¹
  kcat/Km: 0.74 s^-1M^-1
  relative amount of unmodified product generated using 5 µM SIRT4: 3% (biotinyl-SEQ ID NO: 4)
[1]
  proportion of unmodified peptide generated following reaction: 42% for PDHX (SEQ ID NO: 13)
[2]
  PDH activity, immuno-capture colorimetric assay: only active SIRT4 was able to attenuate PDH activity
[3]
  proportion of unmodified peptide generated following reaction: increased to 33% for DLAT (SEQ ID NO: 11)

B2: recombinant SIRT4 H161Y catalytic mutant (protein)
chain: B1 chain with H129Y
H3 K9 Lipoyl peptide
  LC-MS-based deacylation assay: observed no significant activity for any of these substrates
H3 K9 Acetyl peptide
  LC-MS-based deacylation assay: observed no significant activity for any of these substrates
H3 K9 Biotinyl peptide
  LC-MS-based deacylation assay: observed no significant activity for any of these substrates
[2]
  PDH activity, immuno-capture colorimetric assay: only active SIRT4 was able to attenuate PDH activity

B3: recombinant SIRT3 (Sigma, cat. #SRP0117-100UG) (protein)
chain: ISFSVGASSVVGSGGSSDKGKLSLQDVAELIRARACQRVVVMVGAGISTPSGIPDFRSPGSGLYSNLQQYDLPYPEAIFELPFFFHNPKPFFTLAKELYPGNYKPNVTHYFLRLLHDKGLLLRLYTQNIDGLERVSGIPASKLVEAHGTFASATCTVCQRPFPGEDIRADVMADRVPRCPVCTGVVKPDIVFFGEPLPQRFLLHVVDFPMADLLLILGTSLEVEPFASLTEAVRSSVPRLLINRDLVGPLAWHPRSRDVAQLGDVVHGVESLVELLGWTEEMRDLVQRETGKLDGPDK
DLAT K259 Lipoyl peptide
  catalytic efficiency, fold lower than for DLAT acetyl: this efficiency was 13-fold lower than for DLAT acetyl
  in vitro deacylation kinetics: SIRT3 showed some enzymatic activity towards DLAT lipoyl
